These results are taken from CN117255804A (GENSCRIPT NANJING CO LTD, dated 2023).

B1: 382A3E3-VH1-VL3 (antibody, IgG4, V domains shown)
VH: EVQLVESGGGLVQPGGSLRLSCAASGFTFSDYGMSWVRQAPGKGLEWVSFISNVAYGIFYADTVTGRFTISRDNAKNSLYLQMNSLRAEDTAVYYCARDELGRFDYWGQGTLVTVSS
VL: DIQMTQSPSSLSASVGDRVTITCHVSQNINIWLSWYQQKPGKAPKLLIYKASNLHTGVPSRFSGSGSGTDFTLTISSLQPEDFATYYCQQGQTFPRTFGGGTKVEIK
notes: Humanized mAb; Only VH and VL are tied to it
B2: 379E7A6-VH1-VL2 (antibody, IgG4, V domains shown)
VH: EVQLLESGGGLVQPGGSLRLSCAASGFTFSDYGMAWVRQAPGKGLEWVSFISNVAYSKFYVDTVTGRFTISRDNSKNTLYLQMNSLRAEDTAVYYCARDELGRFPYWGQGTLVTVSS
VL: DIQMTQSPSTLSASVGDRVTITCHVSHNINIWLNWYQQKPGKAPKLLIYKASNLHTGVPSRFSGSGSGTEFTLTISSLQPDDFATYYCQQGQTFPRTFGGGTKVEIK
notes: as for B1
B3: 382A3E3-VH1-VL2 (antibody, V domains shown)
VH: EVQLVESGGGLVQPGGSLRLSCAASGFTFSDYGMSWVRQAPGKGLEWVSFISNVAYGIFYADTVTGRFTISRDNAKNSLYLQMNSLRAEDTAVYYCARDELGRFDYWGQGTLVTVSS
VL: DIQMTQSPSTLSASVGDRVTITCHVSQNINIWLSWYQQKPGKAPKLLIYKASNLHTGVPSRFSGSGSGTEFTLTISSLQPDDFATYYCQQGQTFPRTFGGGTKVEIK
notes: Humanized mAb expressed in CHO-3E7
B4: 379E7A6-VH1-VL1 (antibody, IgG4, V domains shown)
VH: EVQLLESGGGLVQPGGSLRLSCAASGFTFSDYGMAWVRQAPGKGLEWVSFISNVAYSKFYVDTVTGRFTISRDNSKNTLYLQMNSLRAEDTAVYYCARDELGRFPYWGQGTLVTVSS
VL: DIQMTQSPSSLSASVGDRVTITCHVSHNINIWLNWYQQKPGKAPKLLIYKASNLHTGVPSRFSGSGSGTDFTFTISSLQPEDIATYYCQQGQTFPRTFGGGTKVEIK
notes: as for B1
B5: 382A3E3-VH1-VL4 (antibody, IgG4, V domains shown)
VH: EVQLVESGGGLVQPGGSLRLSCAASGFTFSDYGMSWVRQAPGKGLEWVSFISNVAYGIFYADTVTGRFTISRDNAKNSLYLQMNSLRAEDTAVYYCARDELGRFDYWGQGTLVTVSS
VL: DIQMTQSPSSLSASVGDRVTITCHVSQNINIWLSWYQQKPGKVPKLLIYKASNLHTGVPSRFSGSGSGTDFTLTISSLQPEDVATYYCQQGQTFPRTFGQGTKVEIK
notes: as for B1
B6: 382A3E3-VH1-VL5 (antibody, IgG4, V domains shown)
VH: EVQLVESGGGLVQPGGSLRLSCAASGFTFSDYGMSWVRQAPGKGLEWVSFISNVAYGIFYADTVTGRFTISRDNAKNSLYLQMNSLRAEDTAVYYCARDELGRFDYWGQGTLVTVSS
VL: DIQLTQSPSFLSASVGDRVTITCHVSQNINIWLSWYQQKPGKAPKLLIYKASNLHTGVPSRFSGSGSGTEFTLTISSLQPEDFATYYCQQGQTFPRTFGGGTKVEIK
notes: as for B1
B7: 382A3E3-VH2-VL5 (antibody, IgG4, V domains shown)
VH: QVQLVESGGGVVQPGGSLRLSCAASGFTFSDYGMSWVRQAPGKGLEWVAFISNVAYGIFYADTVTGRFTISRDNSKNTLYLQMNSLRAEDTAVYYCAKDELGRFDYWGQGTLVTVSS
VL: DIQLTQSPSFLSASVGDRVTITCHVSQNINIWLSWYQQKPGKAPKLLIYKASNLHTGVPSRFSGSGSGTEFTLTISSLQPEDFATYYCQQGQTFPRTFGGGTKVEIK
notes: as for B1
B8: 367C3A3-VH1-VL2 (antibody, IgG4, V domains shown)
VH: QVQLVQSGSELKKPGASVKVSCKASGYTFTDYSMHWVRQAPGQGLEWMGWINTETGEPTYADDFKGRFVFSLDTSVSTAYLQISSLKAEDTAVYYCARYDYAMDYWGQGTLVTVSS
VL: DIQMTQSPSTLSASVGDRVTITCKASQDVSSAVAWYQQKSGKAPKLLIYWASIRHTGVPSRFSGSGSGTEFTLTISSLQPDDFATYYCQQRYTTPPTFGGGTKVEIK
notes: as for B1
B9: 367C3A3-VH2-VL1 (antibody, IgG4, V domains shown)
VH: QVQLVQSGAEVKKPGASVKVSCKASGYTFTDYSMHWVRQAPGQRLEWMGWINTETGEPTYADDFKGRVTITRDTSASTAYMELSSLRSEDTAVYYCARYDYAMDYWGQGTLVTVSS
VL: DIQMTQSPSSLSASVGDRVTITCKASQDVSSAVAWYQQKPGKAPKLLIYWASIRHTGVPSRFSGSGSGTDFTLTISSLQPEDFATYYCQQRYTTPPTFGGGTKVEIK
notes: as for B1
B10: 367C3A3-VH2-VL2 (antibody, IgG4, V domains shown)
VH: QVQLVQSGAEVKKPGASVKVSCKASGYTFTDYSMHWVRQAPGQRLEWMGWINTETGEPTYADDFKGRVTITRDTSASTAYMELSSLRSEDTAVYYCARYDYAMDYWGQGTLVTVSS
VL: DIQMTQSPSTLSASVGDRVTITCKASQDVSSAVAWYQQKSGKAPKLLIYWASIRHTGVPSRFSGSGSGTEFTLTISSLQPDDFATYYCQQRYTTPPTFGGGTKVEIK
notes: as for B1

T1 sequence (Q07011 24-255): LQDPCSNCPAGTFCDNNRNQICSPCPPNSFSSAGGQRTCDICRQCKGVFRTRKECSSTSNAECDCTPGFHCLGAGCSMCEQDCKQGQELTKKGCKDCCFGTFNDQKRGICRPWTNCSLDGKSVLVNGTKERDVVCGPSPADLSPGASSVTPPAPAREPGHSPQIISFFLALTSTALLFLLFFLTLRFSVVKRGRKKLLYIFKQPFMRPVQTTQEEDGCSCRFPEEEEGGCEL

The experiment has as its target T1, 人4-1BB (human, UniProt Q07011 24-255).
T1 construct: whole, on cells; also called TNFRSF9; CD137
Kind of experiment: FACS on HEK293 cells expressing human 4-1BB, 1.0 ug/ml.
Turning to B1, the binding result is recorded as “binds”. Regarding B2, the binding result is on record as “binds”.

In the case of B3, the binding result is listed as “binds”.

As to B4, the binding result is reported as “binds”. The same measure for B5: “binds”; for B6: “binds”. For B7, the binding result is recorded as “binds”. B8: the binding result was “binds”. For B9, the binding result is reported as “binds”. On to B10, for which the binding result is given as “binds”.
